Results on 2 substances are retold here after PMC11957051.

Experiment [1] has as its target P. fluorescens RloA, Pfl01_1762 (20–178) (P. fluorescens). Put plainly: SEC-MALS. On the technique in general: Size exclusion chromatography separates by hydrodynamic size, large species first.
Experiment [2] addresses P. aeruginosa RloA2, PA0462 (18–169) (P. aeruginosa). Nature of the experiment: SEC-MALS.

As a reminder, the stoichiometry N is a count of units in the complex or per binding partner. In the case of “P. fluorescens RloA, Pfl01_1762 (20–178) (enzyme)”, in experiment [1], the stoichiometry N turned out to be 2. As to “P. aeruginosa RloA2, PA0462 (18–169) (enzyme)”, the stoichiometry N in experiment [2] was found to be 2.
